This note sets out measurements from a protein production outcome set (Wang et al. 2014).

The nature of the series: label from the status in PepcDB records.
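Also: failed if final PepcDB status was selected cloned or expressed and not failed if soluble or beyond.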

With “AWAGLQTKHLKVGDIEWVYSESGNSSKPTIILIHGLAGSRDNWNRVAYNLTPYYHVIIPDLPAHGDTKIPNDFDLSIPNLTEKLRRFAEAGHFEKNVHIAGHSMGGAIALLYTAQYPLETKSLLLVDSAGVFKTANTPYLKDPNLLNNLVVKKTGDFDKLFKLATASPPFIPVELKTEQEKLMIAQSKNTQKMVDQLVAMSKIYTPDTFAIATKSIDVPTYIIWGDQDKIINVEAAQELKSLLKNAETPYILKGVGHMPILEADQLVSQQYLIFLNK”, the protein production entry is listed as “failed”.

“AWGLAATGKEFLWVMRPDSVAGEEAVIPKEFLAETADRRMLTSWCPQEKVLSHPAVGGFLTHCGWNSTLESLSCGVPMVGIEIGGDVKRGEVEAVVRELMDGEKGKKMREKAVEWRRLAEKATKLPCGSSVINFETIVNKVLLGKIPNT”: the protein production entry is listed as “failed”.

Consider “AYPDFAPQKFKEKTQGQVKILEDSFLKSSFPTQAELDRLRVETKLSRREIDSWFSERRKLRDSMEQAVLDSMGSGK”, for which the protein production result is “not failed”.

Turning to “CASRQEHSLRIIHTTDLHGNVFPTDFKALRPTSGGMSRLASFLKAARSDRSELLLFDGGDVLQGDPTAYYYNYMDTTGTHLFSRAMNYLRYDAAIPGNHDIETGHAVYDKWVAGCDFPFLAANAIDTETGKPYWAPYKVFDRNGLRVALLGFITPAIPEWLPQSLWTGMRFDDIIESAKYWVPFVIQKEKPDFVVCVLHSGRENDNSNYLEDAGMTLAREVAGIDVLLLGHDHQEYSRRVKGAEADSVLVLNPANHLDKVSDVRLSLARKGDKVLHKRVEGGLTDISRLTPDSAFMAHFSSDEAAVRRFVNE”, the protein production entry is “failed”.

In the case of “CLVDPHTVLPSPISGPTETIRSLRRCAAAGGYGQVALLPRGQSWRDQPERLIGLQNADPSSVHLPLWGGFSLNGKGDELAPHGDLLEHGAIGLADDDAVVPLPLLERGLLLGEMGSCPVLIAPRDPNLQGDGLAREGVETLRAGWAPDPLISELLPLQQLLALQQRHPDRQLRLMNISTAAAVDLLGQADPQLKASVCWWHLLVDGSSLSSTDPGCRVRPSLGGAADRLRLRSALQSGLIQAVAVHAVPLDEEDMLLPADQRPPGLSGHHLVMPALWSALVDQGDLSIESLWELLSFGPSAFLDQP”, the protein production result was “failed”.

As to “CRLLWDYVYQLLSDSRYENFIRWEDKESKIFRIVDPNGLARLWGNHKNRTNMTYEKMSRALRHYYKLNIIRKEPGQRLLFRFMKTPDEIMSGRTDRLEHLESQEL”, the protein production result was “not failed”.

Consider “CSDLPEIQNGWKTTSHTELVRGARITYQCDPGYDIVGSDTLTCQWDLSWSSDPPFCEKTEE”, for which the protein production entry is recorded as “not failed”.

Regarding “CTRAVYLGPDRMVVTGRTMDWKEDIMSNIYVFPRGMQRAGHNKEKTVNWTSKYGSVIATGYDIGTCDGMNEKGLVASLLFLPESVYSLPGDTRPAMGISIWTQYVLDNFATVREAVDEMKKETFRIDAPRMPNGGPESTLHMAITDETGNTAVIEYLDGKLSIHEGKEYQVMTNSPRYELQLAVNDYWKEVGGLQMLPGTNRSSDRFVRASFYIHAIPQTADAKIAVPSVLSVMRNVSVPFGINTPEKPHISSTRWRSVSDQKNKVYYFESTLTPNLFWLDLKKIDFSPKAGVKKLSLTKGEIYAGDAVKDLKDSQS”, the protein production result is on record as “not failed”.

Consider “DAALCAFDADGVVTHWNREAERILGWTAAEAVGRRGFAGWAVRTADAEDVEARLMTAMQAPGRQVHEFALLTKDGGRVLVRTQSAAVHGPDGKPAGVYCAFSEVH”, for which the protein production entry is on record as “not failed”.

“DAFTDQKIRQRYADLPGELHIIELEKDKNGLGLSLAGNKDRSRMSIFVVGINPEGPAAADGRMRIGDELLEINNQILYGRSHQNASAIIKTAPSKVKLVFIRNEDAVNQMA”: the protein production result is “not failed”.

For the sequence “DAGGGVGKELVDLKIIWNKTKHDVKVPLDSTGSELKQKIHSITGLPPAMQKVMYKGLVPEDKTLREIKVTSGAKIMVVGSTI”, the protein production result is reported as “not failed”.

As to “DDFVSLGTSGWHARVVSTVSDPSEVRQFALPDGGILRIASVLSVGGTADWARSVLLPGVSAKEADALMLQRPRLATGLLSLPSIQGESFPVRSHSVGGCILGMRGNQDPLTLYTAVIEGICMTLAHDIKPGGILPATGGGARSVPWMRILASVTNRNIHVTVSEDAALHGAASLAAYATSAEYLPTLAARAIVEIEPEPEVVASFEPLIAKHLELFRFAAALSY”, the protein production entry was “failed”.

Take “DGRIFKMFIEHLEFEKGLDAFSQSWIKALEDSEFLAILRLLFHHIVTSESAHEFAANGIDRLYKMVESQFGSGGDKELEWLIGRSLIQMSK”: the protein production entry is listed as “not failed”.

On to “DIGGITGSFYLNTNALPTNADKIKSLILEVIEQCQIKSDDVVLYGCSKGGTAAVYHGLTNNYKIVAV”, for which the protein production entry was “failed”.

As to “DILVFTPRKSDAGISVILYPGAFVDALSYAPLANKLASSGYKTYIAEMPLNLAVFGKNRAADIIDEAPDEKFVIGGHSLGGVMSSRFAHENESEIEGVFFLASYPDKKGSLKNASFPALSITGTKDDVLNKDAYDKNKKYLPKDTTFVSIEGGNHAQFGSYGAQHGDGKATISEAEQTDQVSNALIAWLNTSVKNQE”, the protein production entry is on record as “not failed”.

Regarding “DIVARLQTQASATVAIPKEHHRFVIGKNGEKLQDLELKTATKIQIPRPDDPSNQIKITGTKEGIEKARHEVLLISAEQDKR”, the protein production entry was “not failed”.

Regarding “DKEWNEKELQKLHCAFASLPKHKPGFWSEVAAAVGSRSPEECQRKYMENPRGKGSQKHVT”, the protein production entry was “not failed”.

Regarding “DKIAIIGSRRMSVYTKNCVFSLASMLKNAHLCVVSGGALGVDITASMAAMPNTIGIFANGLDQIYPRTNEKIIKQIYENALALSEYEDDYLPKNYDFLLRNRLVIALSKAVVVAQADIKSGSMQSAKLALELNKPLYVLPQRLGESTATNLLLKENKAKLICDFKEFVSEFASID”, the protein production result was “failed”.

“DKIGIERFLFPLGLYSYFRWMKQYERDRGLFLSLLLSLLYESTHNFLSVIFSSITGDNFVLQY”: the protein production entry is “failed”.

“DKIHMLKQQNIIGIGTHNGITTIHTTNHKYETTEPLNRYEKRLNPTYFIRIHRSYIINTKHIKEVQQWFNYTYMVILTNGVKMQVGRSFMKDFKASIGLL”: the protein production entry was “failed”.

Turning to “DKSNKLQNLVAEQLVGCGFNEILNNSLTRAAYYDGLESYPSKNLVMLLNPLSADLNCMRQTLLFGGLESIAHNANRKNADLKFFEFGNCYHFDAEKKNPEKVLAPYSEDYHLGLWVTGKMVSNSWAHADENTSVYELKAYVENIFKRLGLDLHSLVVGNLSDDIYSTALTVNTKGGKRLATFGVVTKKMLKAFDVDNEVYYADLNWKELM”, the protein production result is on record as “not failed”.

As to “DLSSVIKASQTLASEIKLEKLLSTLMELVIENAGAKKCVLVLLKNERLLIEAIAKINQVPISTILVSIPIAESDEIPISLINYVSHTSQTLVIDDATTEDLFISDPYIQQKEPKSLLCTPIIKQGKLMGILYLENHLTTGAFTSDRLQVINLLMAQAAISLENAQLYGQLAEYSQNLELKVEQRT”, the protein production result is “failed”.

On to “DPQILTTPGRDIAELRRIAGRPLSVAIDFEGGRVLRHRGILGDFPSPQVMAQTMTPEQVRGMAYDMGRSLFAHGINVNFAPVVDIEAGLEVVGDRAFSPDPLIDATYATAFAQGMADAGVRPVLKHFPGHGRASGDSHTAQVHTPPLAELEKLDLIPYGRVP”, for which the protein production entry is “failed”.

For “DQPVINFGIISTESSQNLKSIWEPFLKDMSQQTGYQVKAFFAPDYAGIIQGMRFDKVDIAWYGNKAAMEAVDRAHGEIFAQTVAASGAPGYWSLLIANKDSKIDSLEDMLANAKSLTFGNGDPNSTSGYLVPGYYVFAKNNVDPVKAFKRTLNSSHEVNALAVANKQVDVATFNTEGMERLELTQPEKARQLKVIWKSPLIPGDPLVWRNNLSDEQKNKLRDFFFKYGANAEQKKVLADLQWSKFQPSDDDQLLPIRQLELFKQRTDVANNANLGAEEKAAKLKALDEELAKLEKRMAEREQKTAANAG”, the protein production result is recorded as “not failed”.

On to “DRAVKEFEANGGSSAANGGGAKKRAKPAKKVAKKSKKEESDEDDDDESE”, for which the protein production result was “failed”.

Regarding “DRRVRRNMEIAEIVGLDAHTKMLRTSTVFQWDSVKDEHAMVGTSKALEEIRRQRGWSVRELNEELERRRRVLEFMLSNGIRMFKDVSAVIHTYQVNPERAMKRLGVEEL”, the protein production result was “failed”.

As to “DRTEERHAKGLRRQVDHRFDKLVGTISEGVLLMDDTGVFRDGNEAAQNILGRSLDEIIGSRFDDDIWNGLREDGSPLPNVEFPFWRAYVEREPVQEEVMGVYPPDAPPRWIRVNAQPLFRSGQEAPYAVLV”, the protein production entry is “not failed”.

Regarding “DSALENPAQVRNYLKAQLRHEPHEVFACLFLDNKHRVMTFEILFRGTINASYVHPRQVVKRALAHNAASLILCHNHPSGITTPSRSDIDLTKRLKEALKLVDVHVLDHVIVGDGEPLSMVEKGLM”, the protein production result is “not failed”.

“DSLGREAKCYNELNGCTKIYDPVCGTDGNTYPNECVLCFENRKRQTSILIQKSGPC”: the protein production entry is recorded as “failed”.

On to “DSVDKTMHIGRQLGSLVNKGDILCLTGDLGTGKTHISKGIAEGLGIDEHITSPTFNIVNEYHSGRLTLYHFDVYRVNDPDEIEAIGFDEYIFGDGVSLIEWANYIEELIPEEYIHIKIEKLPDMGENFRKITINGYGDRYNYIKEIKE”, for which the protein production entry is “failed”.

As for “DTVLIVNKKAEIIWINNNITNLLGYLPDELLGKSIECLVPSRTREKHVNLRNSFINKPNKRSMNQGSGLWAVHKKNHEIPVCIDLNHYEESGEKFTVCSIRL”, the protein production result is “failed”.

With “DVARVQRLAAALATAGTVRDVSQAVVAALRRPLRADRIALAELENDRLVVTVLDPPDPESWPELWRLEWRTEWPDAPVRAMPTLAAALREGRARIWPAGTGDLEPALADVGPGGLAVLPLPAGGRMAGACLIGWDTPHDFGPDERALLTASAGLAGQALMRAHAFDAEHELVGMLQRQL”, the protein production result is “failed”.

In the case of “DVTEQKQAEAELHQRDRLLQAVAEAANWLVVEMNYDTAIEKALAVVGEAAQADRAYLFKNHPHPITGKRAVSLQFEWYGSDLQPSIQDWQNQLYQSTELSRWYSVLSSGKSINELRRKLPVAERELLERQGIQSLLLVPLGLEDQFWGYLGLADCTQERYWSRHEESTLLTMAASISGAWQRQQVEEKIRYQALHDL”, the protein production result was “not failed”.

For the sequence “DYFTTTNSIPPVITTNHRRKHSIEKFYRDQLGSIIWNEEDVGHQQVPEINKHGYRAAVKIIVIIDNMERKAAIQSRQSYDEALRYGAVLIFLPGIYEIDT”, the protein production result was “failed”.

As to “EAPVRVIVVHGLGTHSGALWPLVAAIEGADLAAIDLPKTPLYDDWLRLLESFISSEDDGRPLILIGAGTGGLLCAEAAHRTGLVAHVIATCLLNPSDQPTRRALFRFSPLTRLIQGRLRNREIPVTRVLNFSKISRSPALSKLCAADEFSGASKITWGFLASYVQHKAKLGAVPVTLMHPDHDLLTPVELSLRTLSRLKAPTDVVMLKDCGHFPIEEPGFTTMLETVTSVIARNS”, the protein production entry is given as “failed”.

With “EDGLFSVVLPFMSSFLLDPNAADPGYLKTRDYLTYNGVTTVADMNTGGTNWELEISALKRNLDTPESPIRVRLTPDVMKLAAALKSPEAAMTLVNQMKQHNTDNLVFNGGIKLFADGAMFSQAMQINAPGYIDGHKGEWITQPSSFVEFARSYWNAGYQIHVHTNGDGGAKMVLDTLQELENDKPRADHRFTVEHYGYADDGTSRRIAKLDAQVSANPFYLFDLGDRYAENGLGFDRAARIAPLGGLASRNVPVALHSDFPMAPAEPLFLAWTAMSRETLSGKVFSPSERLTLDQAIRAITIDAAYMIGMENE”, the protein production result is given as “failed”.
